We go through two molecules from publication PMC10901741, “Autonomous transposons tune their sequences to ensure somatic suppression”.

Holding throughout (conditions): protein: recombinant; tags: Halo (N-terminal 10xHis-TEV removed), OregonGreen on Halo; label: 3' CF 647 hydrazide (periodate-oxidized end); single-stranded
Series [1] has as its target T1, Halo-SAFB1 RRM (UniProt Q15424 386-485). Nature of the series: EMSA; protein 3.6-102.4 uM; lower affinity than TRA2B RRM; EMSA: 25 mM Tris-Cl pH 7.4, 50 mM KCl, 5% glycerol, 1 mM DTT, ~100 nM RNA, 30 min on ice, 8% native PAGE 0.5x TBE; pull-down: 25 mM Tris-Cl pH 7.4, ~75 mM KCl.
Series [2] has as its target T2, Halo-TRA2B RRM (UniProt P62995 111-201).
T2 sequence: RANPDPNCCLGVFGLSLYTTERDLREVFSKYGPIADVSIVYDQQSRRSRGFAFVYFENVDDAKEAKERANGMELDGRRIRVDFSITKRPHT
Nature of the series: EMSA; protein 3.6-102.4 uM; clearly higher affinity than SAFB1 RRM; EMSA: 25 mM Tris-Cl pH 7.4, 50 mM KCl, 5% glycerol, 1 mM DTT, ~100 nM RNA, 30 min on ice, 8% native PAGE 0.5x TBE; pull-down: 25 mM Tris-Cl pH 7.4, ~75 mM KCl. (Mobility shift assays separate free from complexed probe on a gel.)

Series [3] addresses T2, Halo-TRA2B RRM. The experiment in a line: EMSA; protein 3.6-102.4 uM; lost all interactions; EMSA: 25 mM Tris-Cl pH 7.4, 50 mM KCl, 5% glycerol, 1 mM DTT, ~100 nM RNA, 30 min on ice, 8% native PAGE 0.5x TBE; pull-down: 25 mM Tris-Cl pH 7.4, ~75 mM KCl.
Series [4] addresses T1, Halo-SAFB1 RRM. Nature of the series: EMSA; protein 3.6-102.4 uM; barely affected by m6A; EMSA: 25 mM Tris-Cl pH 7.4, 50 mM KCl, 5% glycerol, 1 mM DTT, ~100 nM RNA, 30 min on ice, 8% native PAGE 0.5x TBE; pull-down: 25 mM Tris-Cl pH 7.4, ~75 mM KCl.

T1 sequence (Q15424 386-485): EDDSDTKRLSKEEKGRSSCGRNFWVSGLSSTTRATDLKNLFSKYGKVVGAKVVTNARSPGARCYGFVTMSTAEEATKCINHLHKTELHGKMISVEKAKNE

B1: (AGA)x7 RNA, unmethylated (ssRNA)
RNA: GGGAAGAAGAAGAAGAAGAAGAAGAU
As to B1, the binding result with Halo-SAFB1 RRM [1] and with Halo-TRA2B RRM [2] was “binds” throughout.

B2: (m6AGm6A)x7 RNA, methylated (ssRNA)
RNA: GGGAAGAAGAAGAAGAAGAAGAAGAU
modifications: all A are N6-methyladenosine
B2: the results for the binding result with Halo-TRA2B RRM [3] and with Halo-SAFB1 RRM [4] were “no binding” and “binds”, respectively.
